B1: Hairpin Ribozyme (parent)
chain: GUCCUCUUUCACGUGCGCGUGAAAGAGAGAAGUGAACCAGAGAAACACACGUUGUGGUAUAUUACCUGGUA

Variants of: B1
Experiment: self-cleavage, relative activity (ratio to wild type); higher = more cleavage; co-transcriptional

| Variant | self-cleavage |
| --- | --- |
| GUCCUCUUUCACGUGCGCGUGAAAGAGCGAAGUGAACCAGACAAACACACGUUGUGGUAUAUUACCUGGUA [A28C G42C] | 0.109 |
| GUCCUCUUUCACGUGCGCGUGAAAGAGCGAAGUGAACCAGAAAAACACACGUUGUGGUAUAUUACCUGGUA [A28C G42A] | 0.29 |
| GUCCUCUUUCACGUGCGCGUGAAAGAUAGAAGUGAACCAGAGAAACAAACGUUGUGGUAUAUUACCUGGUA [G27U C48A] | 0.0902 |
| GUCCUCUUUCACGUGCGCGUGAAAGAUAGAAGUGAACCAGAGAAACACACGUUGUGGUAUAUUAACUGGUA [G27U C65A] | 0.184 |
| GUCCUCUUUCACGUGCGCGUGAAAGAGCGAAGUGAACCAGAGAAACACACGUUGUGGUAUAUUACCUGGUA [A28C] | 0.497 |
| GUCCUCUUUCACGUGCGCGUGAAAGAUAGAAGUGAACUAGAGAAACACACGUUGUGGUAUAUUACCUGGUA [G27U C38U] | 0.157 |
| GUCCUCUUUCACGUGCGCGUGAAAGAGCGAAGUGAACCAGAGAAAUACACGUUGUGGUAUAUUACCUGGUA [A28C C46U] | 0.151 |
| GUCCUCUUUCACGUGCGCGUGAAAGAGCGAAGUGAACCAGAGAAAGACACGUUGUGGUAUAUUACCUGGUA [A28C C46G] | 0.0967 |
| GUCCUCUUUCACGUGCGCGUGAAAGAGCGAAGUGAACCAGAGAAAAACACGUUGUGGUAUAUUACCUGGUA [A28C C46A] | 0.191 |
| GUCCUCUUUCACGUGCGCGUGAAAGAUAGAAGUGAACCAGAGAAACCCACGUUGUGGUAUAUUACCUGGUA [G27U A47C] | 0.157 |
| GUCCUCUUUCACGUGCGCGUGAAAGAUAGAAGUGAACCAGAGAAACGCACGUUGUGGUAUAUUACCUGGUA [G27U A47G] | 0.222 |
| GUCCUCUUUCACGUGCGCGUGAAAGAGCGAACUGAACCAGAGAAACACACGUUGUGGUAUAUUACCUGGUA [A28C G32C] | 0.121 |
| GUCCUCUUUCACGUGCGCGUGAAAGAGCGAAUUGAACCAGAGAAACACACGUUGUGGUAUAUUACCUGGUA [A28C G32U] | 0.0817 |
| GUCCUCUUUCACGUGCGCGUGAAAGAUAGAAGUGAACCAGAGAAACACACGUCGUGGUAUAUUACCUGGUA [G27U U53C] | 0.398 |
| GUCCUCUUUCACGUGCGCGUGAAAGAUAGAAGUGAACCAGAGAAACACACGUAGUGGUAUAUUACCUGGUA [G27U U53A] | 0.111 |
| GUCCUCUUUCACGUGCGCGUGAAAGAGCGAAGUGAACCAGUGAAACACACGUUGUGGUAUAUUACCUGGUA [A28C A41U] | 1.12 |
| GUCCUCUUUCACGUGCGCGUGAAAGAGCGAAGUGAACUAGAGAAACACACGUUGUGGUAUAUUACCUGGUA [A28C C38U] | 0.218 |
| GUCCUCUUUCACGUGCGCGUGAAAGAGCGAAGUGAACGAGAGAAACACACGUUGUGGUAUAUUACCUGGUA [A28C C38G] | 0.194 |
| GUCCUCUUUCACGUGCGCGUGAAAGAUAGAAGUGAACCAGAGAAACACACGUUGUUGUAUAUUACCUGGUA [G27U G56U] | 0.108 |
| GUCCUCUUUCACGUGCGCGUGAAAGAUAGAAGUGAACCAGAGAAACACACGUUGUAGUAUAUUACCUGGUA [G27U G56A] | 0.0845 |
| GUCCUCUUUCACGUGCGCGUGAAAGAUAGAAGUGAACCACAGAAACACACGUUGUGGUAUAUUACCUGGUA [G27U G40C] | 0.0532 |
| GUCCUCUUUCACGUGCGCGUGAAAGAUAGAAGUGAACCAUAGAAACACACGUUGUGGUAUAUUACCUGGUA [G27U G40U] | 0.0783 |
| GUCCUCUUUCACGUGCGCGUGAAAGAUAGAAGUUAACCAGAGAAACACACGUUGUGGUAUAUUACCUGGUA [G27U G34U] | 1.15 |
| GUCCUCUUUCACGUGCGCGUGAAAGAUAGAAGUAAACCAGAGAAACACACGUUGUGGUAUAUUACCUGGUA [G27U G34A] | 0.282 |
| GUCCUCUUUCACGUGCGCGUGAAAGAUAGAAGUGAACCAGAGAAACACACGUUGUGGUAUAUUACCUGGUC [G27U A71C] | 0.904 |
| GUCCUCUUUCACGUGCGCGUGAAAGAGCGAAGUGAAUCAGAGAAACACACGUUGUGGUAUAUUACCUGGUA [A28C C37U] | 0.396 |

| Variant | self-cleavage |
| --- | --- |
| GUCCUCUUUCACGUGCGCGUGAAAGAUAGAAGUGAACCAGAGGAACACACGUUGUGGUAUAUUACCUGGUA [G27U A43G] | 0.169 |
| GUCCUCUUUCACGUGCGCGUGAAAGAUAGAAGUGAACCAGAGCAACACACGUUGUGGUAUAUUACCUGGUA [G27U A43C] | 0.0898 |
| GUCCUCUUUCACGUGCGCGUGAAAGAUAGAAGUGAACCAGAAAAACACACGUUGUGGUAUAUUACCUGGUA [G27U G42A] | 0.149 |
| GUCCUCUUUCACGUGCGCGUGAAAGAUAGAAGUGAACCAGACAAACACACGUUGUGGUAUAUUACCUGGUA [G27U G42C] | 0.0625 |
| GUCCUCUUUCACGUGCGCGUGAAAGAGCGAAGUGAACCAGAGAAACGCACGUUGUGGUAUAUUACCUGGUA [A28C A47G] | 0.0559 |
| GUCCUCUUUCACGUGCGCGUGAAAGAGCGAAGUGAACCAGAGAAACCCACGUUGUGGUAUAUUACCUGGUA [A28C A47C] | 0.0848 |
| GUCCUCUUUCACGUGCGCGUGAAAGAUAGAAGGGAACCAGAGAAACACACGUUGUGGUAUAUUACCUGGUA [G27U U33G] | 0.145 |
| GUCCUCUUUCACGUGCGCGUGAAAGAGCGAAGUGAACCAGAGAAACAGACGUUGUGGUAUAUUACCUGGUA [A28C C48G] | 0.128 |
| GUCCUCUUUCACGUGCGCGUGAAAGAGCGAAGUGAACCAGAGUAACACACGUUGUGGUAUAUUACCUGGUA [A28C A43U] | 0.148 |
| GUCCUCUUUCACGUGCGCGUGAAAGAGCGAAGUGAACCAGAGCAACACACGUUGUGGUAUAUUACCUGGUA [A28C A43C] | 0.125 |
| GUCCUCUUUCACGUGCGCGUGAAAGAUAGAAGUGAACCAGAGAUACACACGUUGUGGUAUAUUACCUGGUA [G27U A44U] | 0.169 |
| GUCCUCUUUCACGUGCGCGUGAAAGAUAGAAGUGAACCAGAGAAACACACGUUGUGGUCUAUUACCUGGUA [G27U A59C] | 0.0836 |
| GUCCUCUUUCACGUGCGCGUGAAAGAUAGAAGUGAACCAGAGAAACACACGUUGUGGUGUAUUACCUGGUA [G27U A59G] | 0.209 |
| GUCCUCUUUCACGUGCGCGUGAAAGAUAGAAGUGAACCAGAGAAACACACGAUGUGGUAUAUUACCUGGUA [G27U U52A] | 0.354 |
| GUCCUCUUUCACGUGCGCGUGAAAGAUAGAAGUGAACCAGAGAAACACACGUUGUGGUAUAUUACCUCGUA [G27U G68C] | 0.102 |
| GUCCUCUUUCACGUGCGCGUGAAAGAUAGAAGUGAACCAGAGAAACACACGUUGUGGUAUAUUACCUUGUA [G27U G68U] | 0.157 |
| GUCCUCUUUCACGUGCGCGUGAAAGAGCGAAGUGAACCAGAGAAACACACGUUGUGGUAUUUUACCUGGUA [A28C A61U] | 0.272 |
| GUCCUCUUUCACGUGCGCGUGAAAGAGCGAAGUGAACCAGAGAAACACACGUUGUGGUAUAUUACUUGGUA [A28C C66U] | 0.227 |
| GUCCUCUUUCACGUGCGCGUGAAAGAGCGAAGUGAACCAGAGAAACACACGUUGUGGUAUAUUACGUGGUA [A28C C66G] | 0.197 |
| GUCCUCUUUCACGUGCGCGUGAAAGAUAUAAGUGAACCAGAGAAACACACGUUGUGGUAUAUUACCUGGUA [G27U G29U] | 0.119 |
| GUCCUCUUUCACGUGCGCGUGAAAGAUAAAAGUGAACCAGAGAAACACACGUUGUGGUAUAUUACCUGGUA [G27U G29A] | 0.225 |
| GUCCUCUUUCACGUGCGCGUGAAAGAUACAAGUGAACCAGAGAAACACACGUUGUGGUAUAUUACCUGGUA [G27U G29C] | 0.101 |
| GUCCUCUUUCACGUGCGCGUGAAAGAUAGAAGUGAACCAGAGAAACACCCGUUGUGGUAUAUUACCUGGUA [G27U A49C] | 0.225 |
| GUCCUCUUUCACGUGCGCGUGAAAGAUAGAAAUGAACCAGAGAAACACACGUUGUGGUAUAUUACCUGGUA [G27U G32A] | 0.104 |
| GUCCUCUUUCACGUGCGCGUGAAAGAUAGAAUUGAACCAGAGAAACACACGUUGUGGUAUAUUACCUGGUA [G27U G32U] | 0.211 |
| GUCCUCUUUCACGUGCGCGUGAAAGAUAGAAGUGAACCAGAGAAACACACGUUGUGGUAUAUAACCUGGUA [G27U U63A] | 0.0592 |

| Variant | self-cleavage |
| --- | --- |
| GUCCUCUUUCACGUGCGCGUGAAAGAUAGAAGUGAACCAGAGAAACACACGUUGUGGUAUAUGACCUGGUA [G27U U63G] | 0.243 |
| GUCCUCUUUCACGUGCGCGUGAAAGAUAGAAGUGAACCAGAGAAAAACACGUUGUGGUAUAUUACCUGGUA [G27U C46A] | 0.13 |
| GUCCUCUUUCACGUGCGCGUGAAAGAUAGAAGUGAACCAGAGAAAGACACGUUGUGGUAUAUUACCUGGUA [G27U C46G] | 0.0944 |
| GUCCUCUUUCACGUGCGCGUGAAAGAGCGAAGUGAACCAGAGAAACACACGUUGUGGUGUAUUACCUGGUA [A28C A59G] | 0.117 |
| GUCCUCUUUCACGUGCGCGUGAAAGAGCGAAGUGAACCAGAGAAACACACGUUGUGGUUUAUUACCUGGUA [A28C A59U] | 0.14 |
| GUCCUCUUUCACGUGCGCGUGAAAGAUAGAAGUGAACCAGAGAAACACACGUUGUGGUAUAAUACCUGGUA [G27U U62A] | 0.137 |
| GUCCUCUUUCACGUGCGCGUGAAAGAUAGAAGUGAACCAGAGAAACACACGUUGUGGUAUCUUACCUGGUA [G27U A61C] | 0.149 |
| GUCCUCUUUCACGUGCGCGUGAAAGAGCGAUGUGAACCAGAGAAACACACGUUGUGGUAUAUUACCUGGUA [A28C A31U] | 0.107 |
| GUCCUCUUUCACGUGCGCGUGAAAGAGCGAGGUGAACCAGAGAAACACACGUUGUGGUAUAUUACCUGGUA [A28C A31G] | 0.333 |
| GUCCUCUUUCACGUGCGCGUGAAAGAGCGAAGUGAACCCGAGAAACACACGUUGUGGUAUAUUACCUGGUA [A28C A39C] | 0.238 |
| GUCCUCUUUCACGUGCGCGUGAAAGAGCGAAGUGAACCUGAGAAACACACGUUGUGGUAUAUUACCUGGUA [A28C A39U] | 0.127 |
| GUCCUCUUUCACGUGCGCGUGAAAGAUAGAAGUGAACCAGAGAAACACACAUUGUGGUAUAUUACCUGGUA [G27U G51A] | 0.307 |
| GUCCUCUUUCACGUGCGCGUGAAAGAGCGAAGUCAACCAGAGAAACACACGUUGUGGUAUAUUACCUGGUA [A28C G34C] | 1.5 |
| GUCCUCUUUCACGUGCGCGUGAAAGAGCCAAGUGAACCAGAGAAACACACGUUGUGGUAUAUUACCUGGUA [A28C G29C] | 0.204 |
| GUCCUCUUUCACGUGCGCGUGAAAGAGCUAAGUGAACCAGAGAAACACACGUUGUGGUAUAUUACCUGGUA [A28C G29U] | 0.0915 |
| GUCCUCUUUCACGUGCGCGUGAAAGAUAGAAGUGAACCAGAGAAACACACGUUGUGGUAUAUUACCUGGAA [G27U U70A] | 0.172 |
| GUCCUCUUUCACGUGCGCGUGAAAGAUAGAAGUGAACCAGAGAAACACACGUUGUGGAAUAUUACCUGGUA [G27U U58A] | 0.153 |
| GUCCUCUUUCACGUGCGCGUGAAAGAUAGAAGUGAACCAGAGAAACACACGUUGUGGGAUAUUACCUGGUA [G27U U58G] | 0.225 |
| GUCCUCUUUCACGUGCGCGUGAAAGAGCGAAGUGAACCAGAGAAGCACACGUUGUGGUAUAUUACCUGGUA [A28C A45G] | 0.201 |
| GUCCUCUUUCACGUGCGCGUGAAAGAGCGAAGUGAACCAGAGAAUCACACGUUGUGGUAUAUUACCUGGUA [A28C A45U] | 0.134 |
| GUCCUCUUUCACGUGCGCGUGAAAGAUAGAAGUGAAACAGAGAAACACACGUUGUGGUAUAUUACCUGGUA [G27U C37A] | 0.108 |
| GUCCUCUUUCACGUGCGCGUGAAAGAUAGAAGUGAACCAGAGAAACACACGUUGUGGUACAUUACCUGGUA [G27U U60C] | 0.383 |
| GUCCUCUUUCACGUGCGCGUGAAAGAUAGAAGUGAACCAGAGAAACACAAGUUGUGGUAUAUUACCUGGUA [G27U C50A] | 0.155 |
| GUCCUCUUUCACGUGCGCGUGAAAGAUAGAAGUGAACCAGAGAAACACACGUUGUGCUAUAUUACCUGGUA [G27U G57C] | 0.159 |
